Data reported in the RNAGym collection of RNA variant scans (doi:10.7554/elife.80360).

B1: Hammerhead Ribozyme (parent)
chain: ACCGGAUGUGCUUUCCGGUCUGAUGAGUCCGUGAGGACGAAACAG

Variants of: B1
Experiment: self-cleavage, relative activity (ratio to wild type); higher = more cleavage; co-transcriptional

Point of comparison: ACCGGAUGUGCUUUCCGGUCUGAUGAGUCCGUGGGGACGAAACAG [A34G], self-cleavage 0.902. Against it:
- ACCGGCUGUGCUUUCCGGUCUGAUGAGUCCGUGAGUACGAAACAG [A6C G36U] — lower, 0.34
- ACCGGAUGUGCUUUCCGGUCUGAUGAGCCCGUGAGGACGAAAGAG [U28C C43G] — lower, 0.334
- ACCGGUUGUGCUUUCCGGUCUGAUGAGUCUGUGAGGACGAAACAG [A6U C30U] — lower, 0.743
- AGCGGAUGUGCUUUCCGGUCUGAUGAGUCCGUGAGGACGAAACAU [C2G G45U] — lower, 0.335
- ACCGGAUGUGCUUUCCGGUCUCAUGAGUCCGGGAGGACGAAACAG [G22C U32G] — lower, 0.315
- ACCGGAUGUGCUUUCCUGUCUGAUGAGACCGUGAGGACGAAACAG [G17U U28A] — lower, 0.58
- ACCGGAUGUGCUUUCUGGUCUGAUGAGUCCGUGAAGACGAAACAG [C16U G35A] — higher, 0.911
- ACCGGAUGUGCUAUCCGGUCUGAUGAGUCCGCGAGGACGAAACAG [U13A U32C] — higher, 1.24
- ACCGGAUGUGCUUUCCGGUCUCAUGAGUCCGUGAGGACGAAAAAG [G22C C43A] — lower, 0.23
- AGCGGAUGUGCUUACCGGUCUGAUGAGUCCGUGAGGACGAAACAG [C2G U14A] — lower, 0.314
- ACCGGAUCUGCCUUCCGGUCUGAUGAGUCCGUGAGGACGAAACAG [G8C U12C] — higher, 1.11
- ACCGGAUGUGCAUUCCGGUUUGAUGAGUCCGUGAGGACGAAACAG [U12A C20U] — lower, 0.431
- ACCGGAUGUGCUUUGCGGUCUGAUGAGUCCGUGAGGACAAAACAG [C15G G39A] — lower, 0.327
- ACCGGAUGUGCUUUGCGGUCUGAUGAGUCCGUGAGGACCAAACAG [C15G G39C] — lower, 0.275
- ACCGGAUGUGGUUUCCGGUCUGAUGAGUCAGUGAGGACGAAACAG [C11G C30A] — higher, 1.26
- ACCGCAUGUGCUUUCCGGUCUGAUGAGUCCGUGAGGACGAAACAC [G5C G45C] — lower, 0.397
- ACCGGAUGUCCUUUCCGGCCUGAUGAGUCCGUGAGGACGAAACAG [G10C U19C] — lower, 0.503
- ACCGGAUGUGCUAUCCGGUCUGAUGCGUCCGUGAGGACGAAACAG [U13A A26C] — lower, 0.564
- ACCCGAUGUGCUUUCCGGUCUGAUGAGUCCGUGAGGACGAAACGG [G4C A44G] — lower, 0.805
- ACCGGAUGUGCUUUGCGGUCUGAUGAGUCCGUGAGGACGAAGCAG [C15G A42G] — lower, 0.276
- ACCGGAUGUGCUUUUCGGACUGAUGAGUCCGUGAGGACGAAACAG [C15U U19A] — lower, 0.344
- ACCGGAUGUGCUUUCCGGUCUGAUGAGUGCGUGAGGACGAUACAG [C29G A41U] — lower, 0.29
- ACCGGAUGUGCUCUCUGGUCUGAUGAGUCCGUGAGGACGAAACAG [U13C C16U] — higher, 0.976
- ACCGGAUGUACUUUCCGGUCUGAUGAGUCCGUGAGGACGAAACUG [G10A A44U] — lower, 0.741
- ACCGGAUCUGCUUUCCGGUCUGAUGAGUCCGUGUGGACGAAACAG [G8C A34U] — higher, 0.988
- ACCGGAUGUGCUUUCCGGUCUGAUGAGUCCGUCAUGACGAAACAG [G33C G35U] — lower, 0.795
- ACCUGAUGUGCUUUCCGGUCUGAUGAGUCCGGGAGGACGAAACAG [G4U U32G] — lower, 0.316
- ACCGGAUGUGCUUUCCGGUCCGAUGAGUCCGUGUGGACGAAACAG [U21C A34U] — lower, 0.749
- ACCGGAUGUGCUUUCCGGUCUGAUAAGUCCGUUAGGACGAAACAG [G25A G33U] — lower, 0.45
- GCCGGAUGUGCUUUCCGGUCUGAUGAGUCCGUAAGGACGAAACAG [A1G G33A] — higher, 1.53
- ACCGGAUGUGCUUUCCGCUCUGAUGAGUCCGUGAGGACGAAACAC [G18C G45C] — lower, 0.383
- ACCAGAUGUGCUUACCGGUCUGAUGAGUCCGUGAGGACGAAACAG [G4A U14A] — lower, 0.49
- ACCGGAUUAGCUUUCCGGUCUGAUGAGUCCGUGAGGACGAAACAG [G8U U9A] — higher, 1.11
- ACCGGAUGUCCUUUCCGGUCUGUUGAGUCCGUGAGGACGAAACAG [G10C A23U] — lower, 0.447
- ACCGGAUGUGCUUUCCGGUCUGAUGAGUCCAUGAGGACGAACCAG [G31A A42C] — lower, 0.38
- ACCGUAUGUGCAUUCCGGUCUGAUGAGUCCGUGAGGACGAAACAG [G5U U12A] — higher, 1.1
- ACCGGAUGUGCUUUCCGGUCUGAUGAGGCCGUGAUGACGAAACAG [U28G G35U] — lower, 0.58
- GCCGGAUGUGCUUUCCGGUCUGAUGAGUCCGUGAGGAAGAAACAG [A1G C38A] — higher, 0.973
- ACCGGAUGUACUUUCCGGUCUGAAGAGUCCGUGAGGACGAAACAG [G10A U24A] — higher, 1.12
- ACCGGAUGUGCUUCCCGGUCUGAUGAGUCCGUGACGACGAAACAG [U14C G35C] — lower, 0.499
- ACCGGACGUGCUUUCCGGUCUGCUGAGUCCGUGAGGACGAAACAG [U7C A23C] — lower, 0.356
- UCCGGAUGUGCUUUCCGGUCUGAUGAGUCCGUGAGGACGAAGCAG [A1U A42G] — lower, 0.351
- ACCGGAUGUGCUUUCCGGUCUGAUAAGUCCGCGAGGACGAAACAG [G25A U32C] — lower, 0.417
- ACCGGAUCUGCUUUCCGGUCUGAUGAGUCCGUGAGGACGAAACAU [G8C G45U] — lower, 0.546
- GCCGUAUGUGCUUUCCGGUCUGAUGAGUCCGUGAGGACGAAACAG [A1G G5U] — lower, 0.805
- ACCGGAUGUGCUUUCCGGUGUGAUGAGUCCGUGGGGACGAAACAG [C20G A34G] — lower, 0.245
- ACAGGAUGUGCUUACCGGUCUGAUGAGUCCGUGAGGACGAAACAG [C3A U14A] — lower, 0.422
- ACGGGAUGUGCUUUCCGGUCUGAUGAGUCCGUGAGGCCGAAACAG [C3G A37C] — lower, 0.293
- ACCGGAUGUUCUUUCCGGUCUGAUAAGUCCGUGAGGACGAAACAG [G10U G25A] — lower, 0.313
- ACCGGAUGUGCUUUCCGGACUGAUGAGUCCGUGAGGACAAAACAG [U19A G39A] — lower, 0.297
- ACCGGAUGUGCUUUCCGGUCUGAUGACUCCAUGAGGACGAAACAG [G27C G31A] — lower, 0.885
- ACCAGAUGUGCUUUCCGGUCUGAUGAGUCCGCGAGGACGAAACAG [G4A U32C] — lower, 0.516
- AACGAAUGUGCUUUCCGGUCUGAUGAGUCCGUGAGGACGAAACAG [C2A G5A] — lower, 0.37
- ACCGGAUGUGCUUUCCGGUCUGAUGAGUCCGUGAGGACGGAACUG [A40G A44U] — lower, 0.254
- ACCGGAUGUGCGUUCCGGUAUGAUGAGUCCGUGAGGACGAAACAG [U12G C20A] — lower, 0.332
- ACCGGUUGUGCUUUCCGGUCUGAUUAGUCCGUGAGGACGAAACAG [A6U G25U] — lower, 0.355
